Measurements reported in patent publication US8394771.

Target: ICAM-1 on HeLa cells (human) (UniProt P05362)
Test: cell-based or functional assay

EC50, protection of HeLa cells from HRV15 infection: > 0.01 µM
Substance: bivalent anti-ICAM-1 monoclonal antibody RR/1 (Chemicon)
